Results from patent publication JP2003261460A.

Biological target: Flt-1 (VEGFR-1, fms-like tyrosine kinase-1) of wild-type mice (WF) (mouse) (UniProt P35969)
Test: cell-based or functional assay

Chain of UniProt P35969 (P35969 23-1333 S1181G): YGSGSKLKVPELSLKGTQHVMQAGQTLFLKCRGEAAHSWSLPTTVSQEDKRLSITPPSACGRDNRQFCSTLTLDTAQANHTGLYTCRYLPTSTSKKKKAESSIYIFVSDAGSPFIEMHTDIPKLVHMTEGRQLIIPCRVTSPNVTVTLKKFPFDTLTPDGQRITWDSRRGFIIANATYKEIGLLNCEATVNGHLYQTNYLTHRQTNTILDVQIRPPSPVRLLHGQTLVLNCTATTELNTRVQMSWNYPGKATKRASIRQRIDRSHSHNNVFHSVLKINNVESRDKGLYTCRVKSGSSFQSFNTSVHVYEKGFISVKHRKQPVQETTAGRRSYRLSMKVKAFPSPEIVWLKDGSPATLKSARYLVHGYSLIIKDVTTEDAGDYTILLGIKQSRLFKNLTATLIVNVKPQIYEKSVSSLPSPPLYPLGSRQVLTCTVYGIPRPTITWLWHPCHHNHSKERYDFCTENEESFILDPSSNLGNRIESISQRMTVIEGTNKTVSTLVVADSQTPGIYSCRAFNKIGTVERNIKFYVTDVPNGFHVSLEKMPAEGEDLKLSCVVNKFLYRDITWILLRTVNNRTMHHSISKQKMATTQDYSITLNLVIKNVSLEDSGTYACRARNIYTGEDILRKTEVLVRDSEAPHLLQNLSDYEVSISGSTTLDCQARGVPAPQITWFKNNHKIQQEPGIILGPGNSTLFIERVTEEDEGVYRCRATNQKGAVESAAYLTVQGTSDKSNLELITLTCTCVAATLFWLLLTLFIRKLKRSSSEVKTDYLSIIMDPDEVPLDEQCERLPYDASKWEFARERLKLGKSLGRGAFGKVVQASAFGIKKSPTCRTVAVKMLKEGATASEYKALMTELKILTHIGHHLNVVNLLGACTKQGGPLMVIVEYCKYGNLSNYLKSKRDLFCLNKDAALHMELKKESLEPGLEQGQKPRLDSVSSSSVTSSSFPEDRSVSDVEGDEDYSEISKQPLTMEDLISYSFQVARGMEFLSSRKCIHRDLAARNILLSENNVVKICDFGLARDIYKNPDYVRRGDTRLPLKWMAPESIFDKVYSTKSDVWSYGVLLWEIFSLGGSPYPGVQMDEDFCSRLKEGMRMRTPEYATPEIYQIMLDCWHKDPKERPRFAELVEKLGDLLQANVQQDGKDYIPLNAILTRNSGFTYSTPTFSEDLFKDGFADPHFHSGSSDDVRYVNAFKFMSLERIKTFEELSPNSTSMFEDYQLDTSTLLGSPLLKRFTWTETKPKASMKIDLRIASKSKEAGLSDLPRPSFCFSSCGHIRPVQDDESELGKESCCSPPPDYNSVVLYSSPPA

**Q.** VEGF (R&D社製) (ligand) was tested. Which MMP-9誘導 (肺組織培養, ゼラチン基質ザイモグラフィー) did it give?
**A.** Its MMP-9誘導 (肺組織培養, ゼラチン基質ザイモグラフィー) is 40 ng/mL.
